Here are results for one substance from patent publication US20150064134A1.

This experiment deals with MAPKAP-K2(h) (human) (UniProt P49137). Briefly: cell-based or functional assay.

MMI-0100 (peptide) showed an IC50 (radiometric kinase activity assay) of 22 µM.
